According to patent US20160271230A1 (UNIVERSITY HEALTH NETWORK, published 2016):
No end group written: not given here.

Columns and labels:
[1] = target: T1, His-tagged 4Ig-domain of Neogenin (Gallus gallus, UniProt Q90610 1-383); assay: complementary plate assay, RGMa peptides fused with AP on coated Neogenin domains (FIG. 9)
T1 construct: Secreted from transfected cells, purified on Ni-NTA; also called His-4Ig; Neogenin-4Ig; not shown: 6-His tag at the N-terminus; myc and 6-His tags of the pSectag 2B vector at the C-terminus
T1 sequence: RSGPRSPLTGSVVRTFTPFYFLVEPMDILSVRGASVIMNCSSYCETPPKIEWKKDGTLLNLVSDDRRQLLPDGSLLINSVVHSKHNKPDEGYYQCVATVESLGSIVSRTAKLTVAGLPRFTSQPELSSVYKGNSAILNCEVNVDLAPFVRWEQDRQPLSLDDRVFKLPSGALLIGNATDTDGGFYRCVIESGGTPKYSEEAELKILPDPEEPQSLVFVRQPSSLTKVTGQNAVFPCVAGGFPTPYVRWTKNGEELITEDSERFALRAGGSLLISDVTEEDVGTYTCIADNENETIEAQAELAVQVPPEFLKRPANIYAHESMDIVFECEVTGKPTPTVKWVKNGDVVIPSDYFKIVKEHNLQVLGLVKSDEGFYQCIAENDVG
Description: (§1) (A) Different RGMa-AP proteins were incubated on wells coated with the 4Ig 6FNIII or BSA. […] Data were average±SEM (n=3 independent experiments), *p<0.005. (B) Quantification of a binding assay where 4Ig-AP and 6FNIII-AP proteins were assayed on wells coated with proteins from different RGMa regions. […] C-RGMa proteins and full length RGMa only bound 6FNIII. Data were average±SEM (n=3 independent experiments), *p<0.005. […] Quantification of a binding assay where N-RGMa-AP was assayed on wells coated with proteins DCC-4Ig and Neogenin-4Ig. In this experiment Neogenin-4Ig but not DCC-4Ig interacted with N-Raft-AP. Data were average±SEM (n=4 independent experiments), *p<0.005. (D) Cis-interaction between the 4Ig domain of Neogenin and N-Raft is required for localization of Neogenin in lipid rafts. HEK-293 cells were transfected with Neogenin and RGMa constructs. BMP2 (100 nM) was added to the medium 1 hour before cells were collected. Western blotting was performed following lipid raft fractionation. Flotillin was used as a marker for lipid raft fractions, whereas the transferrin receptor (TfR) was used as a marker for heavy membrane-fractions. Every experiment was repeated twice. […] In the first set of experiments, cells were only transfected with Neogenin. […]

[2] = target: T2, His-tagged 6FNIII-domain of Neogenin (Gallus gallus, UniProt Q90610 429-1036); assay: complementary plate assay, RGMa peptides fused with AP (FIG. 9)
T2 construct: also called His-6FNIII; His-FNIII; not shown: His tag
T2 sequence: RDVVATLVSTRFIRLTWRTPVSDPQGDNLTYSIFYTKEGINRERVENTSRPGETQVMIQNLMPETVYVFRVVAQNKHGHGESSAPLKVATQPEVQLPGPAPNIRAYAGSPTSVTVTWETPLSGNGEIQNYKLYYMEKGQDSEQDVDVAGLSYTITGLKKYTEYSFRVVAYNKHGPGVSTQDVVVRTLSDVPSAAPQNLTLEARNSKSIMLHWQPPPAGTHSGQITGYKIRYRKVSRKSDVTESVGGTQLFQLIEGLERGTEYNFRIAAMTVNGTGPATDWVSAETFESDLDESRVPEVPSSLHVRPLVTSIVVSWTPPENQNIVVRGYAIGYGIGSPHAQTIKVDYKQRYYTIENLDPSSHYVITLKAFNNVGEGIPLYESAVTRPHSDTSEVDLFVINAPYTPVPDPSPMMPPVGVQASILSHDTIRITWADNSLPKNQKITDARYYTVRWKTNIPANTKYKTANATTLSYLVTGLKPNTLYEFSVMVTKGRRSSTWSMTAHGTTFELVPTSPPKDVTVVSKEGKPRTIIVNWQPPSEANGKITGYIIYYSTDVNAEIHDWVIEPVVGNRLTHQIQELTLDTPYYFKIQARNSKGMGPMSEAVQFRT
Description: as §1

B1: N-inh fused with alkaline phosphatase (peptide)
chain: GDLAYHSAVHGIDDLMVQHNCSKDGPTSQPRLRTLPP
modifications: also: alkaline phosphatase tag, sequence and position not given here
notes: also called N-inh-AP; not shown: alkaline phosphatase (AP)
B1: no binding [1]; binds [2].
